Assay results as given in US6689574B1, “Assays for nuclear receptor agonists and antagonists using fluorescence resonance energy transfer” (Merck & Co., Inc., priority 1997, dated 2004).

B1: Eu3+K-labeled hCBP1-113 (NH2-terminal amino acids 1-113 of human CBP, cleaved from GST with thrombin, directly labeled with europium cryptate) (other)
chain: MAENLLDGPPNPKRAKLSSPGFSANDSTDFGSLFDLENDLPDELIPNGGELGLLNSGNLVPDAASKHKQLSELLRGGSGSSINPGIGNVSASSPVQQGLGGQAQGQPNSANMA
modifications: directly labeled with europium cryptate (Eu3+K); labeled residues not stated
notes: Made as a GST fusion in E. coli (pGEX) and cleaved with thrombin; The preparation gave two bands, 12 kd (expected) and 10 kd (likely a premature termination product)
B2: GST-hCBP1-113 (glutathione S-transferase fused to amino acids 1-113 of human CBP) (other)
chain: B1 chain
notes: Uncleaved fusion, detected in the assay by Eu3+K-labeled goat anti-GST antibody (Pharmacia 27-4577-01); also called GST-CBP fusion protein; not shown: glutathione S-transferase (GST) of the pGEX expression vector (Pharmacia Biotech); pGEX linker with thrombin site between GST and CBP
B3: GST-hPPARγ1LBD (glutathione S-transferase fused to amino acids 176-478 of human PPARγ1) (receptor)
chain: SHNAIRFGRIAQAEKEKLLAEISSDIDQLNPESADLRQALAKHLYDSYIKSFPLTKAKARAILTGKTTDKSPFVIYDMNSLMMGEDKIKFKHITPLQEQSKEVAIRIFQGCQFRSVEAVQEITEYAKSIPGFVNLDLNDQVTLLKYGVHEIIYTMLASLMNKDGVLISEGQGFMTREFLKSLRKPFGDFMEPKFEFAVKFNALELDDSDLAIFIAVIILSGDRPGLLNVKPIEDIQDNLLQALELQLKLNHPESSQLFAKLLQKMTDLRQIVTEHVQLLQVIKKTETDMSLHPLLQEIYKDLY
notes: Uncleaved fusion, detected in the assay by Eu3+K-labeled anti-GST antibody; not shown: glutathione S-transferase (GST) of the pGEX-KG vector (Guan & Dixon 1991); pGEX-KG linker between GST and the LBD
B4: biotin-labeled hPPARγ1LBD (human PPARγ1 ligand binding domain, amino acids 176-478, cleaved free of GST) (receptor)
chain: B3 chain
modifications: biotinylated with Sulfo-NHS-LC-Biotin to a biotin:hPPARγ1LBD ratio of 3:1; sites not stated
notes: Made from pGEX-KG as a GST fusion and cleaved free of GST; In the assay it carried streptavidin-labeled XL665 through the biotin; also called biotin-hPPARγ1LBD

How the values were obtained:
PPARγ1LBD = PPARγ1LBD (Homo sapiens, UniProt P37231); test: Binding constant for hCBP/PPARγ1LBD interaction by FRET competition with non-biotinylated hCBP1-453 (FIG. 6); parameters: amino acids 176-478 of PPARγ1; made in house; host or cells: E. coli (DH5α); conditions: saturating PPARγ agonist (10 μM BRL49653); derived from FIG. 6; read-out: Kd for the interaction between hCBP1-453 and PPARγ1LBD
Method: The above-described assay can also be used to characterize the interaction between nuclear receptors with co-activators as, e.g., by determining the binding constant for that interaction. […] Saturating amounts of PPARγ agonist (10 μM BRL49653) were used. Increasing concentrations of non-biotinylated hCBP1-453 were used to titrate away biotin-hCBP-PPARγ1LBD complex and decrease the fluorescence energy transfer. A Kd of 300 nM for the interaction between hCBP1-453 and PPARγ1LBD can be derived from the results illustrated in FIG. 6 and this Kd (300 nM) is a measurement of the affinity between CBP and PPARγ.

[1] = biological target: B4; test: FRET, Eu3+K-hCBP1-113 (100 nM) + biotin-hPPARγ1LBD (100 nM) + SA-XL665 (100 nM), 1 µM AD5075, PBS
[2] = biological target: B4; test: FRET, same format without agonist (vehicle), HEPES + 0.05% NP40; background control
[3] = biological target: B4; test: FRET, same format without agonist (0.1% DMSO vehicle), PBS; background control
[4] = biological target: B4; test: FRET, Eu3+K-hCBP1-113 + biotin-hPPARγ1LBD + SA-XL665, 1 µM AD5075, HEPES + 0.05% NP40
[5] = biological target: B4; test: FRET, experiment 3 format, HEPES + 0.05% NP40
Description: (§1) In order to get an even better signal-noise ratio, the above-described format was modified slightly for experiment 3.

[6] = biological target: B4; test: FRET, GST-hCBP1-113 + Eu3+K anti-GST antibody + biotin-hPPARγ1LBD (100 nM) + SA-XL665 (500 nM), 1 µM AD5075, HEPES + 0.05% NP40
Description: as §1

[7] = biological target: non-biotinylated hCBP1-453 (NH2-terminal amino acids 1-453 of human CBP, cleaved from GST) (human, UniProt Q92793 1-453); test: FRET competition: increasing non-biotinylated hCBP1-453 displaces biotin-hCBP from PPARγ1LBD, saturating agonist (10 µM BRL49653)
Method: The above-described assay can also be used to characterize the interaction between nuclear receptors with co-activators as, e.g., by determining the binding constant for that interaction. […] Saturating amounts of PPARγ agonist (10 μM BRL49653) were used.

[8] = biological target: B1; test: FRET, Eu3+K-hCBP1-113 + biotin-hPPARγ1LBD + SA-XL665, PBS

Chain of PPARγ1LBD (P37231 204-505): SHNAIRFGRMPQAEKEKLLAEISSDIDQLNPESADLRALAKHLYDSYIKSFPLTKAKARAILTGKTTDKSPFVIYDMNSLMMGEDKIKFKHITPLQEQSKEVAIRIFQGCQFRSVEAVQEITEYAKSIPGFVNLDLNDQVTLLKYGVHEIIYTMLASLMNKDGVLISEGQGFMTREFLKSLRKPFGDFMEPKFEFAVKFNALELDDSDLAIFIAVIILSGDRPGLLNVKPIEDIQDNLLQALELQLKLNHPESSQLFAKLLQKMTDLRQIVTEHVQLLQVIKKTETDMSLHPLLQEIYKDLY
Chain of PPARγ1LBD (Q92793 1-453 partner): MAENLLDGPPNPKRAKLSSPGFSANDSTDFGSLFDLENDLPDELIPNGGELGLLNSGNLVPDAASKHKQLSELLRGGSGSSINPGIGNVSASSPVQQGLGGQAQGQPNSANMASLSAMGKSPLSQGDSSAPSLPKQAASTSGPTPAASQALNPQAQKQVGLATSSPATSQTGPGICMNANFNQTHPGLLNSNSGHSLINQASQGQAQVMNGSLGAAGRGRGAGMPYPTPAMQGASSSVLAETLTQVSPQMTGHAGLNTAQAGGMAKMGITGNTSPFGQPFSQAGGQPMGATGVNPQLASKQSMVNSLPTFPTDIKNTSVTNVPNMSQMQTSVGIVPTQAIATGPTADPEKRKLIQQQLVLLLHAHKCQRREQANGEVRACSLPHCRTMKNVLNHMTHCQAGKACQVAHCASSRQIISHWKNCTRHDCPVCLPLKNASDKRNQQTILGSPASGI

hCBP1-453: NH2-terminal 1-453 amino acids of human CBP, expressed in E. coli as GST fusion and cleaved
Kd (PPARγ1LBD): 300 nM

B1
Emission ratio with AD5075 [1]: 1130 665 nm/620 nm ratio x 10,000
Emission ratio with vehicle [2]: 617 665 nm/620 nm ratio x 10,000
Emission ratio with vehicle [3]: 1070 665 nm/620 nm ratio x 10,000
Emission ratio with AD5075 [4]: 967 665 nm/620 nm ratio x 10,000

B2
signal-noise ratio (with AD5075 against without) [5]: 2 fold
Emission ratio with vehicle [2]: 536 665 nm/620 nm ratio x 10,000
Emission ratio with AD5075 [6]: 1080 665 nm/620 nm ratio x 10,000

B3
Kd [7]: 300 nM

B4
binding result [8]: binds
